Laboratory results reported in the DeepSol protein solubility set.

Experiment: soluble on expression in E. coli; label from the status in PepcDB or PDB records

| Sequence | soluble on expression in E. coli |
| --- | --- |
| MGSDKIHHHHHHMMGGKTLVLLDERLISLSMTDNRGFDADQVTLSVDDADGLLQLPPRGADLSVSIGWKGEALVYKGVFIVDEVAHSGPPDTLEVTARSADFRDEFNVKREISWHDLTVERVVSAIAHRYKLKPVISAQLMDLEIDHADQTQESDMSFLTRMAEMLGAIATVKNGCLLFILPGGGVSASGKPLPAAEITRSSGDRHSFRIADRDAYTGVRAYWLDLNFGKKKKVSVKRRKAKPKKEKSSSREGDYMEGEDGNVYVLRKTYQNETAAKRAAAAKWQQLQRGAAQFSITLARGRADLYPEVHVSVSGFKADIDNQEWIISRVEHVIDGSGFTSRLELEAKIADWIAESD | not soluble |
| MRTFCILKDFKIFIIFFLQNPCGGEGLNILERIAKEVQEETKVRLHARNVERVLQALLKTGDFWKIVDYSDLPVPAASGIIKKFLDEGIVFIDENENILFTQKGLDLVKELGIEPFEEHKCRACEGRGIPFYDDKELYRTFVEIAKDRPKPVQQYDQGSVTPETTVSRVLFLDSRGDLRGKEIIVMGAEDDLTGLAIALTRKAKRVLIIDIDERLIDFDNRIIKELGIDNAEAMVWDLRNPYTEDFLGKFDVFITDPPETFAAFRAFIGRGIATLKDAGCAGYFGLTLRDSSIFRWKEFQEILINEYGVVITDIIQDFNDYMNWEYHPETRAAQIAPVKKNPTDIWYRSAWYRIETLPGFKRWNEPISDEVFYLDEEGSTT | not soluble |
| MQQSTLVRLKEKLTLKNPIMVVGLPGVGLVGKLVAEHLVDELAAERIMEVYSPHFPPQVLVNKDCTVRPVSNTIYLGKANETDVLFLVGDHQSTTAQGHYELCSLYLDIAEELKVPRIYTLGGYPTGKLTYEDTVLGVANSTELIEEIKQYGVEFRESEPSGGIVGASGLLVAFSGMRGIDAACLMGMTPGYLMDPKSAQSLLKVLCNIFGIEVNTDSLKKKAEEMENILEKLKEKEEQQNLPEVKPTEEDLRYIG | soluble |
| LRSSSQNSSDKPVAHVVANHQVEEQLEWLSQRANALLANGMDLKDNQLVVPADGLYLVYSQVLFKGQGCPDYVLLTHTVSRFAISYQEKVNLLSAVKSPCPKDTPEGAELKPWYEPIYLGGVFQLEKGDQLSAEVNLPKYLDFAESGQVYFGVIAL | soluble |
| MKTYDPATAVKTTGEFNGKKRFAVLLMGTDTGALNRTEKRGRTDTMILAVVNPAKKRYTLVSIPRDTMAQMVGSSSFTTEKINAAYEIGGARMSMDSVSALINVPIKYYAVVNMGGIMKMIRYVGGINIRPTLSFEYGGYVFKKGKLTHMGGAGALAYSRMRYDDPRGDYGRQERQRQVITTLIKKAVSVSSLTNLDSILTSVSSNVRTNLPFSALQQIALNYRGCANSSSSDYLHGYNAMIDDAAYQVQPTEELQRISDLVRTELGLEHHHHHH | soluble |
| MSQVTEQSVRFQTALASIKLIQASAVLDLTEDDFDFLTSNKVWIATDRSRARRCVEACVYGTLDFVGYPRFPAPVEFIAAVIAYYVHPVNIQTACLIMEGAEFTENIINGVERPVKAAELFAFTLRVRAGNTDVLTDAEENVRQKLRAEGVM | soluble |
| MGSDKIHHHHHHMRGGNIETMVAGTIKVVQMLPDLNEGGVEKGTLELGAFLTESGHQSIVISGGGRMVSQLESEGSRHLTWPHIGEKSPRCLNYFFPLRRFLLKEGVDIVHLRSRLPAWVAFLAWKSLPVKRRPVLITTFHGFYSVNFYSAIMTRGERIIAVSKTIADHIREAYDVAAERIVLIPRGLDEEQFNPENVTVERIRNLKERWGLNGNTDPVVMLPGRVTRLKGQDVFLQSLAGIKELPWKAIMVGESDATSEYTRILEKMVGDPDLRERVKFVGHCSDMPAAMTLADIVVSTSTKPESFGRTSVEAQAMRKPVIVSAHGGSLETVLDGKTGWHVKPGDSEALSACLRIALSDESVRKKMGVEGRKWVVSQFTVTKMCEKTVALYQELLLRKSSWSQI | not soluble |
| MSLYKQTSIFDAKFDKNRPLADRMRPRTLDEFVGQEHILGKGKALRELIEKDSITSMILWGPPGVGKTTLAMIIANMTNSKFVNFSAVLSGIKEIKEIMAQAERDAMYGQRTVVFIDEIHRFNKAQQDAFLPHVEKGNIILIGATTENPSFEVNSALLSRSKVFMMKPLDVKDIMIILKRALKDEERGLGLYNVEIDEEKLEKIALFSNGDARVALNTLEMAVMAANVVNGKRVVTDEILSDVMQKKALLYDKAGEEHYNLISAFHKSLRNSDWDAALYWMARMLEAGEDPLYIARRMIRFASEDVGLADPQALSVAIAAYEASHYIGMPECSVNLAQAAVYLALAPKSNALYVAYNRVKKDAEETFAEPVPMHLRNAPTKLMKELGYGEGYKYAHDFEEKVTDMECLPENLKGRRYYIPTDSGFEKKLKERMEEILKLKGEGHHHHHH | soluble |
| MAKNPKDGESRTFLISVAAELAGMHAQTLRTYDRLGLVSPRRTSGGGRRYSLHDVELLRQVQHLSQDEGVNLAGIKRIIELTSQVEALQSRLQEMAEELAVLRANQRREVAVVPKSTALVVWKPRR | soluble |
| SNTKKEIIWYKEKAQKTNYSVVYIHGFGASKNEIYPVPNNIAKALNANIFFTRLKGHGINNKNAFRGITTQDWLRDIDEAINIGKLIGDKLVLIGTSNGGTASIWALANYPNEINSAVLISPNIFPYDKRTNIVYYPWGRQIAYLITGGYNKFETKEYKRKEHPTIKSHSSRVQHVDAIIAMMGLVTLLNSYNFNEIKIPLIITHTPNDHTVDPIKINEFIKNYGGEKKDIPIILLENSHAHLPIGNQSYKSAQNTSYFTKYVFDFINKINK | not soluble |
| MGSDKIHHHHHHMSRLIEQIKQKDACAFTHGGKFHADDVFSSALLLYINPEISITRGNSVPDDFTGIVFDIGRGEFDHHQKDSRIRENGVPYAAFGLLWEAVGADILGKELAVKFDESFVQPLDNNDNTGEKNELATLIGNFNPSWDYEGGSDEAFFQAVSVAGMILENKFERYRGNERADKRVEEVLAKHDPASRILVLPEFIPCQKALSETDIAFVIFPSNRGGFCIQPQKREYSMNYKCSFPAEWLGLEGEELVNATGIPGAIFCHKGGFIMTVKEQDEAVKACEKALSLHKDSSVIVWYGSKGDTAAMACDSQTDELLINVAKARGIKGVHICHVDAMPVPQLELTELDSETAYAEVLMEKPQWKAYVKEQVKQIVKYRPEAVYVEGNAFETYPVIRALRKKHIPVLTMIENKEKKIMVRIP | not soluble |
| MGSDKIHHHHHHAVTSCLDTEEIEYSPDATIHAFALDTIHGVNYKFTIDQLGPDGVGLIYNQDSLPVGSDTIIDRILIKTLTTTSGIITAKNAEGQDTLFNYSDSIDFRGTMQKPMRIKVWAADMQYTKEYTISVRVHQQDPDSMNWTKMTDNFANYSGYQKSVTLNEDLLIYTSNTTAYQSSGDVISKGRSWTPVSITGLPDNIKLSSIISFGGKLYATNGESAYVSSDGALWNVATDLNKNGKVEMLIAPFPKNEGNLLGISGIAGIINNGDQSTFAITNPEATAWNIGSETVGADFPLENLSATSYLTATGIQTIAVMGNNRNANDTTSIAWTSQDGLLWIPLKTSSSTAYCPKLDNPSFFYYDNAFLAFGGNFETIYTSEAGIAWYKANKKIFLPAEFKDRGNNYSTVVDKNNFIWVIWSNGGANEVWRGRINKFGFKRQNNN | not soluble |
| MGSDKIHHHHHHMSSLEDILALTSALIRYRSTDTRPEERDRCAAHIMRWCDAEDIASSRVDNNGVTSLIIGPASKRAPLLFMAHYDVVEGPDALFQPVLSDSVLKGRGSIDDKYAVALSLVLFRDHLRHLRAQGRSQDDMPLQLLITGDEETGGYDGARHALGHVGAEFCIALDGGSPSTVITKEKGIIDCTLTAHGRAAHGARPWLGTNAVECLMADYMALKRLFPGQDDPTDPIHWHRSLNLGIVRAGSAVNQVPDLATAWLDVRYTEHDDPQALFAAMQESIRGELVATRTEPVFHSGETPWIDRLLACAPGASTGFAHGASDARFLSEHGIPGVVWGAEGETSQHGPDEHLLVDSLDTVHKALAAFVRTAGGTA | not soluble |
| MSRVPRTFAGWTEQMSSSGKMYYYNKKTEISQWDKPAEWPAEGGSAERDKPKGGVNEKPRFAEDRYNEYIGQLSSSSSCFWRQIGIFSLSSSSKYYLCASRFLPLSHSLLQFLREIRRRL | not soluble |
| MKLEDLPKYYSPKSPGLTDASASTSKDALSITDVMAAQGMTQNRAEMGFSAFLGKMGISMNDRARATELLADYALSRCDRVAALRKLPAEIKPVVMRIMASYAFEDYARSAASKKQCPCCYGEKFIESVVFTNKVQYPDGKPPVWAKCTKGVYPSYWEEWKKVREVVKVACPECGGKGEVSTACKDCRGRGVAIHREESVKRGMPVIRDCQRCGGRGYERLPSTEVFNAICEVTNQITRASWEKTVKKFYDALVTRFDIEEAWAERQLKKVTR | not soluble |
| MDKIKVGLQYWIPQHGLTRLVGKLASAKAGSLTTAVIRWFIKQYNVNMDEAKHSDPKHFKTFNEFFVRELKEGARPITEGDEIITHPADACVSQFGPIEDGQLIQAKGHNYSAQELLGGDEKLAEEFKDGSFATLYLSPRDYHRVHMPCDGTLRQMIYVPGDLFSVNPLTAENVPNLFARNERVVCIFDTEFGPMAQVLVGATIVGSIEQVWAGTITPPRGNTVYKWDYPAEGDKAVILKKGEEMGRFKLGSTVINLFAKDAIEFDVSMENGQPTVMGTPYALKKLEHHHHHH | soluble |
| MGSDKIHHHHHHHILNKKSYKNGYDNISDTDSVYFNGVEKYARFADFPVQINIMQKFDYTLDQLMLRDDYEISLEEWSSILFQIIFALAVAQKEYSFAHNDIHSDNVMFSNTKEPYIYYHINDTIYKVPTFNRVAKLIDFARGTFKVDGKWYISDVFENGGEADGQYEYDLNDFKPNHSFDLARLASSIIDNVNVPEIEDILRTWIKTTSGYDVMEDKDTFDIYIKIAKECFNAVPTKVIKHKLFQQFKITKKQKPNNTYVYYY | not soluble |
| MGSDKIHHHHHHMLIISDAHANIHPLKYVIQREKFDKIVFCGDAVDYGPNPGETLDLLKENADVMVSGNHDYAAAYSVDCRCGEENHELSVFTRENITLKKLGKNDISFLRSLPNRMDMEIDGMKFQVMHGSPRDELYGYMYPWSVQDHLRSMLGSPLDPANYVVGHTHYQFLIRYAGNLVINPGSIGQPRDNPMPSYAVYDSSRNSVEFPRFDYDRSKLKEDIRSIISDQEILSGLYRLFSL | not soluble |
| MGSDKIHHHHHHMEVKVGLAPMAGYTDSAFRTLAFEWGADFAFSEMVSAKGFLMNSQKTEELLPQPHERNVAVQIFGSEPNELSEAARILSEKYKWIDLNAGCPVRKVVKKGAGGALLKDLRHFRYIVRELRKSVSGKFSVKTRLGWEKNEVEEIYRILVEEGVDEVFIHTRTVVQSFTGRAEWKALSVLEKRIPTFVSGDIFTPEDAKRALEESGCDGLLVARGAIGRPWIFKQIKDFLRSGKYSEPSREEILRTFERHLELLIKTKGERKAVVEMRKFLAGYTKDLKGARRFREKVMKIEEVQILKEMFYNFIKEV | not soluble |
| MSYGPQLPAFLMKGQIKENEVDDEAEEGAPQVYGPVIPGMEEPKNEKEKHDDQEETSVFGPSIPKEVREKLQNVENPAEDDEEDEEFPSQSYGPSIPSNFRPTVGPSIPGTFGDDSDEDIGPMPVAKGDEEKEAIDRAYRMVLQKEAEDDEKNFQPKREEWMTSVPKKLGNFGLGARTFKKGTTSERDASWEDAPGAKKRRNEETRSARSVGIAAADARQAAIVAEKTSGPSLLEIHQKKRDEKVKDAGYAQGERRPFDREKDMEVRGLKPGGSKEAVDRMKEFADRFANSKDQRFL | not soluble |
